From paper PMC6486635, “IMP1 KH1 and KH2 domains create a structural platform with unique RNA recognition and re-modelling properties”

Key:
IMP1 KH1KH2DD [1] = target: T1, IMP1 KH1KH2DD (Homo sapiens, UniProt Q9NZI8 194-369, K294D;E295D); assay: ITC; 10 mM sodium phosphate pH 7.4, 50 mM NaCl; ITC 25 C with 2 mM TCEP; BLI 30 C with 0.5 mM TCEP and 0.5 mg/ml BSA; NMR 0.5 mM TCEP; RNAsin 40-100 u/ml; details: protein: recombinant; tags: 6xHis-GST removed by TEV
IMP1 KH1DDKH2 = IMP1 KH1DDKH2 (Homo sapiens, UniProt Q9NZI8 194-369, K213D;E214D); assay: as above; details: protein: recombinant; tags: 6xHis-GST removed by TEV
IMP1 KH1KH2DD [2] = target: T1, IMP1 KH1KH2DD; assay: BLI; 10 mM sodium phosphate pH 7.4, 50 mM NaCl; ITC 25 C with 2 mM TCEP; BLI 30 C with 0.5 mM TCEP and 0.5 mg/ml BSA; NMR 0.5 mM TCEP; RNAsin 40-100 u/ml; details: protein: recombinant; tags: 6xHis-GST removed by TEV; label: 5'-biotin
IMP1 KH1KH2 wild type = IMP1 KH1KH2 wild type (Homo sapiens, UniProt Q9NZI8 194-369); assay: as above; details: protein: recombinant; tags: 6xHis-GST removed by TEV; label: 5'-biotin
IMP1 KH1KH2 wild type, sequence (Q9NZI8 194-369): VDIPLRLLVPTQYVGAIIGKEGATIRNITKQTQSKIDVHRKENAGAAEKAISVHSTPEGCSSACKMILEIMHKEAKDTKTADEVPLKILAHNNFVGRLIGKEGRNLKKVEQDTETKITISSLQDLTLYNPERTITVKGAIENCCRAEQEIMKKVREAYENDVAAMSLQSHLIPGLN

T1 sequence (Q9NZI8 194-369 K294D/E295D): as the sequence (Q9NZI8 194-369) above, with K101D, E102D counted along it
IMP1 KH1DDKH2, sequence (Q9NZI8 194-369 K213D/E214D): as the sequence (Q9NZI8 194-369) above, with K20D, E21D counted along it

B1: UCCCU (ssRNA)
RNA: UCCCU
B1: no binding (IMP1 KH1KH2DD [1]).

B2: UCAGU (ssRNA)
RNA: UCAGU
B2 gave a Kd (IMP1 KH1KH2DD [1]) of 1000 ± 30 nM.

B3: UCCGU (ssRNA)
RNA: UCCGU
In the case of B3, the Kd (IMP1 KH1KH2DD [1]) is reported as 500 ± 10 nM.

B4: UUCCG (ssRNA)
RNA: UUCCG
Binder B4 has a Kd (IMP1 KH1DDKH2) of 124000 ± 15000 nM.

B5: UCCGC (ssRNA)
RNA: UCCGC
B5 was tested, and the Kd (IMP1 KH1KH2DD [1]) was 800 ± 40 nM.

B6: UCUGU (ssRNA)
RNA: UCUGU
For B6, the Kd (IMP1 KH1KH2DD [1]) was 2600 ± 80 nM.

B7: MYCRNA (ssRNA)
RNA: CACAGCAUACAUCCUGUCCGUC
B7 showed a Kd (IMP1 KH1KH2DD [2]) of 1760 ± 200 nM and a Kd (IMP1 KH1KH2 wild type) of 46 ± 8 nM.

B8: UUCGU (ssRNA)
RNA: UUCGU
For B8, the Kd (IMP1 KH1KH2DD [1]) was 25000 ± 2000 nM.

B9: UGCGU (ssRNA)
RNA: UGCGU
Binder B9 has a Kd (IMP1 KH1KH2DD [1]) of 26000 ± 2000 nM.

B10: UCCCG (ssRNA)
RNA: UCCCG
For B10, the Kd (IMP1 KH1DDKH2) was 100000 ± 4000 nM.

B11: UACGU (ssRNA)
RNA: UACGU
In the case of B11, the Kd (IMP1 KH1KH2DD [1]) is reported as 25000 ± 1000 nM.
